Experimental data reported in PMC4954698.

Legend:
[1] = biological target: Glutamate decarboxylase (GAD) from Escherichia coli K12, produced without pyridoxine hydrochloride supplementation (GAD-C) (E. coli str. K12 substr. MG1655) (UniProt P69910); experiment: SEC; Superdex 200 10/300GL, 20 mM citric acid-Na2HPO4 buffer pH 6.5 with 0.15 mM PLP, 0.4 mL/min, calibrated with molecular weight standards; native molecular weight about 324 kDa
[2] = biological target: Glutamate decarboxylase (GAD) from Escherichia coli K12, produced in media supplemented with pyridoxine hydrochloride (GAD-V) (E. coli str. K12 substr. MG1655) (UniProt P69910); experiment: as above

Substance	stoichiometry N [1]	stoichiometry N [2]
Glutamate decarboxylase (GAD) from Escherichia coli K12, produced without pyridoxine hydrochloride supplementation (GAD-C) (from UniProt P69910 1-466) (enzyme)	6	
Glutamate decarboxylase (GAD) from Escherichia coli K12, produced in media supplemented with pyridoxine hydrochloride (GAD-V) (from UniProt P69910 1-466) (enzyme)		6
